Test results published in patent US20250179160A1 (OMEROS, published 2025).

Experiments:
[1] = target: T1, recombinant human Pro-Factor D (human, UniProt P00746 20-253); test: capture ELISA: recombinant Factor D captured by plate-bound goat polyclonal AF1824; hybridoma supernatant diluted two-fold; OD450
T1 construct: also used for the endogenous pro-Factor D detected in 3MC patient serum; also called pro CFD; hPro-CFD
Protocol: Hybridoma supernatants were first screened for binding to immobilized recombinant human mature Factor D-His. […] ELISA plates were coated with polyclonal anti-human factor D antibody AF1824 (R&D Systems). Hybridoma supernatants were diluted two-fold in PBS, 0.05% Tween 20 (PBST). Supernatant from NS-1 myeloma cell line (NS-1 sup) was included as a matrix control to determine the level of assay background.

[2] = target: T2, recombinant human mature Factor D (human, UniProt P00746 26-253); test: BLI (Octet ForteBio), 20 nM human IgG4 antibody on anti-human sensors, antigen 111 nM
T2 construct: also called mature CFD; hCFD
Protocol: Affinities of candidate antibodies to human mature-Factor-D versus human pro-Factor D were determined as follows.
Association and dissociation constants were determined by Octet Fortebio.

[3] = target: T1, recombinant human Pro-Factor D; test: sandwich ELISA: Factor D titrated (ug/ml Df) on plate-bound goat polyclonal AF1824; purified recombinant human IgG4 antibody as detection antibody; OD450
Description: An HRP-tagged anti-mouse secondary antibody followed by TMB substrate was used to develop the assay.

[4] = target: T2, recombinant human mature Factor D; test: capture ELISA: recombinant Factor D captured by plate-bound goat polyclonal AF1824; hybridoma supernatant diluted two-fold; HRP goat anti-mouse IgG Fc; OD450
Protocol: The specificity of anti-human pro-CFD hybridomas were further analyzed as follows. […] ELISA plates were coated with polyclonal anti-human factor D antibody AF1824 (R&D Systems). Hybridoma supernatants were diluted two-fold in PBS, 0.05% Tween 20 (PBST). […] Hybridoma supernatants and control samples were allowed to bind to captured pro or mature Factor D for one hour at room temperature. After washing three times with PBST, 100 μL/well of HRP-goat anti-mouse IgG Fc gamma secondary antibody (Jackson ImmunoResearch) diluted in PBST was added and incubated for 1 hour at room temperature. After washing three times with PBST, TMB substrate (ThermoFisher), 100 μL/well, was added. After 4 minutes the reaction was stopped with 50 μL/well of 1N H2SO₄, then read at 450 nm on a Biotek™ ELISA plate reader.

[5] = target: T2, recombinant human mature Factor D; test: ELISA: antibody titrated 3-fold from 3 ug/ml on plate coated with 1 ug/ml recombinant human mature Factor D; HRP anti-mouse, rat or human secondary; OD450

Binder	Kd [2]	binding result [3]	binding result [4]	further results
6G6, hybridoma supernatant (antibody, V domains shown, Mouse hybridoma antibody) VH: QITLKESGPGILQSSQTLSLTCSFSGISLTTSGMGVSWIRQPSGKGLEWLAHIYWDDEKHYHPSLKSRLTISKDASRNQVFFRILSVDTADTATYYCALRYYGYRSFMDYWGQGTSVTVSS VL: DVLMTQSPLSLPVSLGDQASIFCRSNQSIVHSNGNTYFEWYLQKPGQSPKLLIYKVSNRFSGVPDRFSGSGSGTDFTLRISRVEAEDLGVYYCFQGSHVPPTFGGGTKLEIKR				binding result [1]: no binding
49G3, hybridoma supernatant (antibody, V domains shown, Mouse hybridoma antibody) VH: QVTLKESGPGILQSSQTLSLTCSFSGISLSSSGMGVSWIRQPSGKGLEWLAHIYWDDEKHYNPSLKSRLTISKDASRNQIFLKIISVDTADTATYYCALRYYGYNYVMHYWGQGTSVTVSS VL: DVLMTQTPLSLPVSLGDQASISCRSSQSILHSNGNTYFEWYLQKPGQSPKLLIYKVSNRFSGVPDRFSGSGSGTDFTLKISRVEAEDLGVYYCFQGSHVPPTFGGGTKLEIKR				binding result [1]: no binding
27B3, purified recombinant, human IgG4 (antibody, V domains shown, Mouse variable regions on human IgG4 (S228P) and human kappa constant regions) VH: QVTLKESGPGILQSSQTLSLTCSFSGISLNISGMGVSWIRQPSGKGLEWLAHIYWDDEKHYNPSLKRRLTISKDASRNQVFFRISSVDSADTATYYCALRYYGYGSIMDYWGHGTSVTVSS VL: DVLMTQTPLSLPVSLGDQASISCRSSQSIVHSNGNTYFEWYLQKPGQSPKLLIYKVSNRFSGVPDRFSGSGSGTDFTLKISRVEAEDLGVYYCFQGSHVPPTFGGGTKLEIKR	24.1 nM	no binding		
27B3, hybridoma supernatant (antibody, V domains shown, Mouse hybridoma antibody) VH: QVTLKESGPGILQSSQTLSLTCSFSGISLNISGMGVSWIRQPSGKGLEWLAHIYWDDEKHYNPSLKRRLTISKDASRNQVFFRISSVDSADTATYYCALRYYGYGSIMDYWGHGTSVTVSS VL: DVLMTQTPLSLPVSLGDQASISCRSSQSIVHSNGNTYFEWYLQKPGQSPKLLIYKVSNRFSGVPDRFSGSGSGTDFTLKISRVEAEDLGVYYCFQGSHVPPTFGGGTKLEIKR				binding result [1]: no binding
49G3, purified recombinant, human IgG4 (antibody, V domains shown, Mouse variable regions on human IgG4 (S228P) and human kappa constant regions) VH: QVTLKESGPGILQSSQTLSLTCSFSGISLSSSGMGVSWIRQPSGKGLEWLAHIYWDDEKHYNPSLKSRLTISKDASRNQIFLKIISVDTADTATYYCALRYYGYNYVMHYWGQGTSVTVSS VL: DVLMTQTPLSLPVSLGDQASISCRSSQSILHSNGNTYFEWYLQKPGQSPKLLIYKVSNRFSGVPDRFSGSGSGTDFTLKISRVEAEDLGVYYCFQGSHVPPTFGGGTKLEIKR	2.3 nM	no binding		
6G6, purified recombinant, human IgG4 (antibody, V domains shown, Mouse variable regions on human IgG4 (S228P) and human kappa constant regions) VH: QITLKESGPGILQSSQTLSLTCSFSGISLTTSGMGVSWIRQPSGKGLEWLAHIYWDDEKHYHPSLKSRLTISKDASRNQVFFRILSVDTADTATYYCALRYYGYRSFMDYWGQGTSVTVSS VL: DVLMTQSPLSLPVSLGDQASIFCRSNQSIVHSNGNTYFEWYLQKPGQSPKLLIYKVSNRFSGVPDRFSGSGSGTDFTLRISRVEAEDLGVYYCFQGSHVPPTFGGGTKLEIKR	14.3 nM	no binding		
10G1, hybridoma supernatant (antibody, V domains shown, Mouse hybridoma antibody) VH: QVTLKESGPGILQSSQTLSLTCSFSGVSLSSSGMGVSWIRQPSGKGLEWLAHIYWDDEKHYNPSLKSRLTISKGASRNQVFLKIISVDTADTATYYCALRYYGYNSIMHYWGQGASVTVSS VL: DVLMTQTPLSLPVSLGDQASISCRSSESIVHSNGNTYLEWYLQKPGQSPKLLIYKVYNRFSGVPDRFSGSGSGTDFTLKISRVEAEDLGVYYCFQGSHVPPTFGGGTKLEIKR				binding result [1]: no binding
58F5, purified recombinant, human IgG4 (antibody, V domains shown, Mouse variable regions on human IgG4 (S228P) and human kappa constant regions) VH: QVTLKESGPGILQSSQTLSLTCSFSGISLNTSIMGVSWIRQPSGKGLEWLAHIYWDDEKHYNPSLKSRLTISKDASRNQVFLKIISVDTADTATYYCALRYYGYNYVMHYWGQGTSVTVSS VL: DVLMTQTPLSLPVSLGDQASISCRSSQSIVHSNGNTYLEWYLQKPGQSPKLLIYKVSNRFSGVPDRFSGSGSGTDFTLKISRVEADDLGVYYCFQGSHVPPTFGGGTKLEIKR	< 0.001 nM	no binding		
58F5, hybridoma supernatant (antibody, V domains shown, Mouse hybridoma antibody; also called 58GF5) VH: QVTLKESGPGILQSSQTLSLTCSFSGISLNTSIMGVSWIRQPSGKGLEWLAHIYWDDEKHYNPSLKSRLTISKDASRNQVFLKIISVDTADTATYYCALRYYGYNYVMHYWGQGTSVTVSS VL: DVLMTQTPLSLPVSLGDQASISCRSSQSIVHSNGNTYLEWYLQKPGQSPKLLIYKVSNRFSGVPDRFSGSGSGTDFTLKISRVEADDLGVYYCFQGSHVPPTFGGGTKLEIKR				binding result [1]: no binding
14A11, purified recombinant, human IgG4 (antibody, Mouse variable regions on human IgG4 (S228P) and human kappa constant regions) heavy: not shown light: DVLMTQSPLSLPVSLGDQASIFCRSNQSIVHSNGNTYFEWYLQKPGQSPKLLIYKVSNRFSGVPDRFSGSGSGTDFTLRISRVEAEDLGIYYCFQGSHVPPTFGGGTKLEIKRTVAAPSVFIFPPSDEQLKSGTASVVCLLNNFYPREAKVQWKVDNALQSGNSQESVTEQDSKDSTYSLSSTLTLSKADYEKHKVYACEVTHQGLSSPVTKSFNRGEC	9.77 nM	no binding		
10G1, purified recombinant, human IgG4 (antibody, V domains shown, Mouse variable regions on human IgG4 (S228P) and human kappa constant regions) VH: QVTLKESGPGILQSSQTLSLTCSFSGVSLSSSGMGVSWIRQPSGKGLEWLAHIYWDDEKHYNPSLKSRLTISKGASRNQVFLKIISVDTADTATYYCALRYYGYNSIMHYWGQGASVTVSS VL: DVLMTQTPLSLPVSLGDQASISCRSSESIVHSNGNTYLEWYLQKPGQSPKLLIYKVYNRFSGVPDRFSGSGSGTDFTLKISRVEAEDLGVYYCFQGSHVPPTFGGGTKLEIKR	0.731 nM	no binding		
13A10, hybridoma supernatant (antibody, V domains shown, Mouse hybridoma antibody) VH: DVQLQESGPGLVKPSQSLSLTCTVTGYSITSDYAWNWIRQFPGNKLEWMGYISYIGGIGYNPSLKSRISITRDTSKNQFFLHLNSVTTGDTATYYCARNGAMDFWGQGISVTVSS VL: DIVLTQSPASLAVSLGQRATISCKASQSVDYDGDSYMNWYQQKPGQPPKLLIYDASNLESGIPARFSGSGSGTDFTLNIHPVEEEDAATYYCQQSNEAPWTFGGGTKLEIKR			no binding	
1F9, purified recombinant, human IgG4 (antibody, V domains shown, Mouse variable regions on human IgG4 (S228P) and human kappa constant regions) VH: EVKLEESGGGLVQPGGSMKLSCVASGFTFGSYWMSWVRQSPEKGLEWVAEIRLKSDNYAAHYAESVKGKFTISRDDSKSRLYLQMNSLRGEDTGIYYCTNAWFASWGQGTLVTVSA VL: DIVMSQSPSSLTVSVGEKVTMSCMSSQSLLYSKDQKNYLAWYQQKPGQSPTLLIYWASTRESGVPDRFTGSGSGTDFTLTISSVKAEDLAVYYCLQYYTYPYTFGGGTKLEIKR				binding result [5]: no binding (tested: 3 ug/ml)
20A1, purified recombinant, human IgG4 (antibody, V domains shown, Mouse variable regions on human IgG4 (S228P) and human kappa constant regions) VH: EVKLEESGGGLVQPGGSMKLSCIASGFTFSTYWMSWVRQSPEKGLEWVAEIRLKSENYATYYAESVKGKFIISRDDSKSRLYLQMNSLRAEDTGIYYCTNAWFANWGQGTLVTVSA VL: DIVMSQSPSSLVVSVGEKVTMSCKSSQNLLYSRDQKNYLAWYQQKPGQSPNLLIYWASTRESGVPDRFTGSGSGTDFSLTISSVKAEDLAVYYCLQYYSYPYTFGGGTKLEMKR				binding result [5]: no binding (tested: 3 ug/ml)
18F5, hybridoma supernatant (antibody, V domains shown, Mouse hybridoma antibody) VH: EVKLEESGGGLVQPGGSMKLSCVASGFTFGNYWMSWVRQSPEKGLEWVAEIRLKSDNYATHYAESVKGKFTISRDDSKSRLYLQMNSLRGEDTGLYYCTNAWFASWGQGTLVTVSA VL: DIVMSQSPSSLAVSVGEKVTMSCMSSQSLLYSKDQKNYLAWYQQKPGQSPKLLIYWASTRESGVPDRFTGSGSGTDFTLTISSVKAEDLAVYYCLQYYTYPYTFGGGTKLEIKR			no binding	

More lines, main results first:

Kd [2]	binding result [3]	binding result [4]	Binder	further results
		no binding	21H1, hybridoma supernatant (antibody, V domains shown, Mouse hybridoma antibody) VH: DVQLQESGPGLVKPSQSLSLTCTVTGYSITSDYAWNWIRQFPGNKLEWMGYISYSGSTGYSPSLKSRISITRDTSKNQFFLHLNSVTTGDTATYYCARNGAMDYWGQGISVTVSS VL: DIVLTQSPASLAVSLGQRATISCKASQSVDYDGDSYMNWYQQKPGQPPKLLIYDASTLESGIPARFSGSGSGTDFTLNIHPVEEEDAATYYCQQNYEAPWTFGGGTKLEIKR	
		no binding	20A1, hybridoma supernatant (antibody, V domains shown, Mouse hybridoma antibody) VH: EVKLEESGGGLVQPGGSMKLSCIASGFTFSTYWMSWVRQSPEKGLEWVAEIRLKSENYATYYAESVKGKFIISRDDSKSRLYLQMNSLRAEDTGIYYCTNAWFANWGQGTLVTVSA VL: DIVMSQSPSSLVVSVGEKVTMSCKSSQNLLYSRDQKNYLAWYQQKPGQSPNLLIYWASTRESGVPDRFTGSGSGTDFSLTISSVKAEDLAVYYCLQYYSYPYTFGGGTKLEMKR	
		no binding	2A4, hybridoma supernatant (antibody, V domains shown, Mouse hybridoma antibody) VH: EVKLEESGGGLVQPGGSMKLSCVASGFTFSTYWMSWVRQSPEKGLEWVAEIRLKSDNYATHYTESVKGKFTISRDDSKSRLYLQMNSLRVEDTGIYYCTNAWFAYWGQGTLVTVSA VL: DIVMSQSPSSLAVSVGEKFTMSCKSSQSLLYSRDQKNYLAWYQQQPGQSPKLLIYWASTRESGVPDRFTGSGSGTDFTLTISSVKTEDLAVYYCLQYYSYPYTFGGGTKLEIKR	
		no binding	1F9, hybridoma supernatant (antibody, V domains shown, Mouse hybridoma antibody) VH: EVKLEESGGGLVQPGGSMKLSCVASGFTFGSYWMSWVRQSPEKGLEWVAEIRLKSDNYAAHYAESVKGKFTISRDDSKSRLYLQMNSLRGEDTGIYYCTNAWFASWGQGTLVTVSA VL: DIVMSQSPSSLTVSVGEKVTMSCMSSQSLLYSKDQKNYLAWYQQKPGQSPTLLIYWASTRESGVPDRFTGSGSGTDFTLTISSVKAEDLAVYYCLQYYTYPYTFGGGTKLEIKR	
